Assay results published in patent EP4682169A1 (Gracell Biotechnologies (Shanghai) Co., Ltd., dated 2026).
Where “and” joins values, the source holds several entries; their conditions need not be identical. Identical values can stand only once.

Tests used:
[1] = target: T1, human Claudin18.2 expressed on cells (human, UniProt P56856-2 1-261); experiment: phage flow cytometry, phage supernatant, PE anti-M13
T1 construct: whole, on cells; also called CLDN18.2

[2] = target: T2, Claudin18.2 recombinant protein (His tag) (UniProt P56856-2 1-261, limits assumed); experiment: ELISA, coated antigen 200 ng/well; antibody 0.37 ug/mL
T2 construct: also called Claudin18.2-his antigen; not shown: His tag

Claudin 18.2 VLP [3] = target: T3, Claudin 18.2 VLP (UniProt P56856 1-261); experiment: as above
T3 construct: Antigen coated on ELISA plates, 200 ng/well; source and construct not described; also called Claudin18.2-VLP protein; Claudin18.2 VLP antigen

[4] = target: T2, Claudin18.2 recombinant protein (His …); experiment: ELISA, coated antigen 200 ng/well; antibody 0.014 ug/mL
Claudin 18.2 VLP [5] = target: T3, Claudin 18.2 VLP; experiment: as above
[6] = target: T2, Claudin18.2 recombinant protein (His …); experiment: ELISA, coated antigen 200 ng/well; antibody 0.123 ug/mL
Claudin 18.2 VLP [7] = target: T3, Claudin 18.2 VLP; experiment: as above
[8] = target: T2, Claudin18.2 recombinant protein (His …); experiment: ELISA, coated antigen 200 ng/well; antibody 0 ug/mL (blank well, background)
Claudin 18.2 VLP [9] = target: T3, Claudin 18.2 VLP; experiment: as above
[10] = target: T2, Claudin18.2 recombinant protein (His …); experiment: ELISA, coated antigen 200 ng/well
Claudin 18.2 VLP [11] = target: T3, Claudin 18.2 VLP; experiment: ELISA, coated antigen 200 ng/well
[12] = target: T2, Claudin18.2 recombinant protein (His …); experiment: ELISA, coated antigen 200 ng/well; antibody 100 ug/mL (so in the source)
Claudin 18.2 VLP [13] = target: T3, Claudin 18.2 VLP; experiment: as above
[14] = target: T2, Claudin18.2 recombinant protein (His …); experiment: ELISA, coated antigen 200 ng/well; antibody 1.111 ug/mL
Claudin 18.2 VLP [15] = target: T3, Claudin 18.2 VLP; experiment: as above
[16] = target: T2, Claudin18.2 recombinant protein (His …); experiment: ELISA, coated antigen 200 ng/well; antibody 0.041 ug/mL
Claudin 18.2 VLP [17] = target: T3, Claudin 18.2 VLP; experiment: as above
[18] = target: T2, Claudin18.2 recombinant protein (His …); experiment: ELISA, coated antigen 200 ng/well; antibody 3.333 ug/mL
Claudin 18.2 VLP [19] = target: T3, Claudin 18.2 VLP; experiment: as above
Claudin 18.2 VLP [20] = target: T3, Claudin 18.2 VLP; experiment: ELISA, coated antigen; lower end, tied by Table 3 to 10-hIgG1Fc on the VLP (4.96 nM)
[21] = target: T4, Human Claudin-18.2 protein (human, UniProt P56856-2 1-261, limits assumed); experiment: SPR (Biacore 8K), antibody captured on Protein A, Claudin-18.2 protein as analyte
T4 construct: Soluble analyte injected over captured antibodies in SPR

[22] = target: T1, human Claudin18.2 expressed on cells; experiment: flow cytometry on 293FT CLDN18.2-Luc cells, APC anti-mouse IgG Fc

B1: VHH clone 4 (phage-displayed) (VHH)
VHH: EVQLVESGGGLVQPGGSLRLSCAASGQFFSLNYLAWYRQAPGSQRELIALVSSGGSTQYGDSVKGRFTISRDNAKNTVYLQMASLKPEDTAVYYCNLHTYDFLGRDYWGQGTQVTISS
notes: Tested as phage supernatant, detected with PE anti-M13; also called Clone ID 4
Q: Does B1 bind [1]?
A: binds

B2: 10-hIgG1Fc (Fc fusion)
chain: QVQLAESGGGLVQPGGSLRLSCAASGNILSINYMGWYRQAPGKERELVATITRGGTTNYQGDLKGRFIISGDNTKDTVYLQMNNLQPEDTAVYYCYFRINFGILGGLRDYWGQGTQVTVSS
notes: VHH-hIgG1Fc recombinant antibody; also called 10-hlgG1Fc; VHH-hIgG1Fc recombinant antibody of clone 10; not shown: human IgG1 Fc (hIgG1Fc)
Q: B2 was tested. Which “absorbance at 450 nm” value [2] did it give?
A: 0.476

Q: And the “absorbance at 450 nm” value (Claudin 18.2 VLP [3])?
A: 1.46

Q: And the “absorbance at 450 nm” value [4]?
A: 0.063

Q: What about the “absorbance at 450 nm” value (Claudin 18.2 VLP [5]) of the same binder?
A: 0.329

Q: What about the “absorbance at 450 nm” value [6] of the same binder?
A: 0.172

Q: What about the “absorbance at 450 nm” value (Claudin 18.2 VLP [7]) of the same binder?
A: 0.568

Q: What about the “absorbance at 450 nm” value [8] of the same binder?
A: 0.054

Q: What about the “absorbance at 450 nm” value (Claudin 18.2 VLP [9]) of the same binder?
A: 0.311

Q: And the EC50 [10]?
A: 4 µg/mL and 50 nM

Q: What about the EC50 (Claudin 18.2 VLP [11]) of the same binder?
A: 0.4 µg/mL and 4.96 nM

Q: What about the “absorbance at 450 nm” value [12] of the same binder?
A: 3.38

Q: What about the “absorbance at 450 nm” value (Claudin 18.2 VLP [13]) of the same binder?
A: 2.62

Q: What about the “absorbance at 450 nm” value [14] of the same binder?
A: 1.06

Q: And the “absorbance at 450 nm” value (Claudin 18.2 VLP [15])?
A: 2.14

Q: And the “absorbance at 450 nm” value [16]?
A: 0.084

Q: And the “absorbance at 450 nm” value (Claudin 18.2 VLP [17])?
A: 0.355

Q: What about the “absorbance at 450 nm” value [18] of the same binder?
A: 2.15

Q: What about the “absorbance at 450 nm” value (Claudin 18.2 VLP [19]) of the same binder?
A: 2.51

Q: And the EC50 (Claudin 18.2 VLP [20])?
A: 4 nM

B3: 2-mIgG2aFc (Fc fusion)
chain: EVQLVESGGGLVQPGGSLRLSCAASGNILSINYMGWYRQAPGKERELVATITRGGSTNYQGNLKGRFIISGDNTKDTVYLQMNNLQPEDTAVYYCYFRINFGILGGLRDYWGQGTQVTVSS
notes: Fusion antibody anti-Claudin18.2 VHH-mIgG2aFc; also called 2-mIgG Fc; 2-mlgG2a Fc; not shown: mouse IgG2a Fc (mIgG2aFc)
Q: B3 was tested. Which Kd [21] did it give?
A: 1.1 nM

Q: What about the koff [21] of the same binder?
A: 0.00052 s⁻¹

Q: And the kon [21]?
A: 471000 M⁻¹ s⁻¹

Q: What about the EC50 [22] of the same binder?
A: 0.02 nM

B4: VHH clone 14 (phage-displayed) (VHH)
VHH: EVQLVESGGGLVQPGGSLRLSCAASGSLFSIITMGWYRQAPGKQRELVATVTRGGRLNYGDSVKGRFTISSGNVENTLDLQMNNLKPEDTAVYYCNAILESGNFWGRGTQVTVSS
notes: Tested as phage supernatant, detected with PE anti-M13; also called Clone ID 14
Q: Does B4 bind [1]?
A: binds

B5: 18-mIgG2aFc (Fc fusion)
chain: QVQLVESGGGLVQPGGSLRLSCAASGSILNLMTTGWYRQAPGKQRDLVATITFGGTTNYADAVKGRFTISRDNAKNTVYLQMNNLEPEDTAVYFCYLDYIFGFGDRRVAWDQGTQVTVSS
notes: Fusion antibody anti-Claudin18.2 VHH-mIgG2aFc; not shown: mouse IgG2a Fc (mIgG2aFc)
Q: How did the EC50 [22] turn out when B5 was run?
A: 0.06 nM

B6: VHH clone 3 (phage-displayed) (VHH)
VHH: QVQLVESGGGLVQAGDSVRLSCAASGQTLSNYNVAWFRQAPGKEREFVAGATWSGRITNYSDSVRGRFTISRDNAKNTVYLQMNSLGPGDTAVYHCAANSFQLGDKPGDYHYWGQGTQVTVSS
notes: Tested as phage supernatant, detected with PE anti-M13; also called Clone ID 3
Q: Does B6 bind [1]?
A: binds

B7: 8-hIgG1Fc (Fc fusion)
chain: QVQLVESGGGLVQPGGSLRLSCAASGSIFGLNFMGWWRQAPGSQRELVAIATSGGSIQYGDSVKGRFTISRDNAKNTVYLQMASLKPEDTAVYYCNVHTYDFLGRDYWGQGTQVTVSL
notes: VHH-hIgG1Fc recombinant antibody; also called 8-hlgG1 Fc; VHH-hIgG1Fc recombinant antibody of clone 8; not shown: human IgG1 Fc (hIgG1Fc)
Q: What does the source list for B7?
A: absorbance at 450 nm (Claudin 18.2 VLP [3]): 0.931; absorbance at 450 nm (Claudin 18.2 VLP [5]): 0.326; absorbance at 450 nm (Claudin 18.2 VLP [7]): 0.474; absorbance at 450 nm (Claudin 18.2 VLP [9]): 0.289; EC50 (Claudin 18.2 VLP [11]): 0.61 µg/mL and 7.66 nM; absorbance at 450 nm (Claudin 18.2 VLP [13]): 2.46; absorbance at 450 nm (Claudin 18.2 VLP [15]): 1.87; absorbance at 450 nm (Claudin 18.2 VLP [17]): 0.337; absorbance at 450 nm (Claudin 18.2 VLP [19]): 2.1

B8: VHH clone 9 (phage-displayed) (VHH)
VHH: EVQLVESGGGLVQPGGSLRLSCAASGSIFGLNFMGWWRQAPGSQRELVAIATSGGSIQYGDSVKGRFTISRDNAKNTVYLQMANLKPEDTAVYYCNVHTYDFLGRDYWGQGTQVTVSL
notes: Tested as phage supernatant, detected with PE anti-M13; also called Clone ID 9
Q: Does B8 bind [1]?
A: binds

B9: 5-mIgG2aFc (Fc fusion)
chain: QVQLVESGGGLVQTGGSLRLSCAASDSTFSSYIMGWFRQAPGKEREFVAGITWSGGIKDYADSVKGRFTIARDNAKNTVYLQMNSLKPEDAAIYYCAANAIQLTRRSGDYAYWGQGTQVTVSS
notes: Fusion antibody anti-Claudin18.2 VHH-mIgG2aFc; also called 5-mIgG Fc; 5-mlgG2a Fc; not shown: mouse IgG2a Fc (mIgG2aFc)
Q: How did the Kd [21] turn out when B9 was run?
A: 3.02 nM

Q: And the koff [21]?
A: 0.000373 s⁻¹

Q: What about the kon [21] of the same binder?
A: 123000 M⁻¹ s⁻¹

Q: What about the EC50 [22] of the same binder?
A: 0.013 nM

B10: 5-hIgG1Fc (Fc fusion)
chain: QVQLVESGGGLVQTGGSLRLSCAASDSTFSSYIMGWFRQAPGKEREFVAGITWSGGIKDYADSVKGRFTIARDNAKNTVYLQMNSLKPEDAAIYYCAANAIQLTRRSGDYAYWGQGTQVTVSS
notes: VHH-hIgG1Fc recombinant antibody; also called 5-hlgG1Fc; VHH-hIgG1Fc recombinant antibody of clone 5; not shown: human IgG1 Fc (hIgG1Fc)
Q: What does the source list for B10?
A: absorbance at 450 nm [2]: 1.41; absorbance at 450 nm (Claudin 18.2 VLP [3]): 0.942; absorbance at 450 nm [4]: 0.108; absorbance at 450 nm (Claudin 18.2 VLP [5]): 0.274; absorbance at 450 nm [6]: 0.463; absorbance at 450 nm (Claudin 18.2 VLP [7]): 0.39; absorbance at 450 nm [8]: 0.057; absorbance at 450 nm (Claudin 18.2 VLP [9]): 0.247; EC50 [10]: 0.81 µg/mL and 10.1 nM; EC50 (Claudin 18.2 VLP [11]): 0.55 µg/mL and 6.87 nM; absorbance at 450 nm (Claudin 18.2 VLP [13]): 2.35; absorbance at 450 nm [14]: 2.53; absorbance at 450 nm (Claudin 18.2 VLP [15]): 1.86; absorbance at 450 nm [16]: 0.207; absorbance at 450 nm (Claudin 18.2 VLP [17]): 0.275; absorbance at 450 nm [18]: 3.5; absorbance at 450 nm (Claudin 18.2 VLP [19]): 2.14

B11: 5H1-mIgG Fc (Fc fusion)
chain: QVQLVESGGGLVQTGGSLRLSCAASDSTFSSYIMGWVRQAPGKGLEWVAGITWSGGIKDYADSVKGRFTIARDNAKNTVYLQMNSLKPEDAAIYYCAANAIQLTRRSGDYAYWGQGTQVTVSS
notes: Subclass printed only as mIgG Fc for this one; also called 5H1-mlgG Fc; H1-mlgG Fc; not shown: mouse IgG Fc (printed mIgG Fc)
Q: B11 was tested. Which Kd [21] did it give?
A: 7.21 nM

Q: What about the koff [21] of the same binder?
A: 0.000552 s⁻¹

Q: And the kon [21]?
A: 76600 M⁻¹ s⁻¹

B12: 5H2-mIgG2a Fc (Fc fusion)
chain: QVQLVESGGGLVQPGGSLRLSCAASDSTFSSYIMGWFRQAPGKGLEFVAGITWSGGIKDYADSVKGRFTIARDNSKNTLYLQMNSLRAEDAAVYYCAANAIQLTRRSGDYAYWGQGTLVTVSS
notes: also called 5H2-mIgG Fc; 5H2-mlgG2a Fc; not shown: mouse IgG2a Fc
Q: B12 was tested. Which Kd [21] did it give?
A: 3.32 nM

Q: What about the koff [21] of the same binder?
A: 0.000417 s⁻¹

Q: What about the kon [21] of the same binder?
A: 126000 M⁻¹ s⁻¹

B13: VHH clone 11 (phage-displayed) (VHH)
VHH: QVQLVESGGGLVQPGGSLRLSCAASGNILSINYMGWYRQAPGKERELVAIITRGGSTTYAPSLKGRFTISGDNAKDTVYLQMNSLQPEDTAVYYCNFRINFGILGGLRDYWGQGTQVTVSS
notes: Tested as phage supernatant, detected with PE anti-M13; also called Clone ID 11
Q: Does B13 bind [1]?
A: binds
